Experimental data: the DeepSol protein solubility set

Assay: soluble on expression in E. coli; label from the status in PepcDB or PDB records

Soluble on expression in E. coli, not soluble:
MGSDKIHHHHHHMSEENKIGTYQFVAEPFHVDFNGRLTMGVLGNHLLNCAGFHASDRGFGIATLNEDNYTWVLSRLAIELDEMPYQYEKFSVQTWVENVYRLFTDRNFAVIDKDGKKIGYARSVWAMINLNTRKPADLLALHGGSIVDYICDEPCPIEKPSRIKVTSNQPVATLTAKYSDIDINGHVNSIRYIEHILDLFPIELYQTKRIRRFEMAYVAESYFGDELSFFCDEVSENEFHVEVKKNGSEVVCRSKVIFE
MGSDKIHHHHHHMSEKLWEKGYKVNEEVEKFTVGDDYITDMKIIEYDIKASIVHSRMLHKIGLLSAEEQKKIEEALSELLNLVKEGKFQIKPEEEDCHTAIENFLVKKLGEIGKKIHTARSRNDQVLTALRLMYKEELKEIENLIRELQKSLERFIEKFGDVKFPGYTHTRKAMPTDFATWAGALKDALEDDLKLLKTAYEIVDQSPLGTGAGYGVPIDIDREFTAKELGFSKVQWNPIYTQNSRGKFEYLILHTLSQISYDLNRFASDIIFFSLPEIGYLKLPKELCTGSSIMPHKINPDPLELVRAHHHTIVSKMLMAVTLPSNLIFGYHRDFQLLKKPVIEAFEVVKNIVRIMKIIFDHLEVDKERSESSITEEVLATHRVYELVKQGVPFRDAYRMVAEKYGREKD
MGSDKIHHHHHHMSELTLLADADERGRRYLAGNAQRRVFPDADALSALARFNEALPQQGFSPEDTLTLLDEVGSPATTASNGPNYFGFVIGAALPIAAASERLMIAWDQCASTFDNSPVSATLERLASRWVLDILKLPKESAVGFGTSATACTLSCLVAARRAMLAKQGWDFDNDGLIGAPEIKVVISALTHITVKKALRVLGFGLRHIIVAPVNAFGQIDVTQLPPLDDRTILCLQAGEVNTGEFDDFAQIIPIAKAAGAWVHVDGAFGLWARASSHAALTESIELADSWTTDAHKWLNTPYDCAMAICRNADALAEAMNADAVYSSAARDAQKNLTLEFSRRPRGIPVWAVLRTLGRDGVAEMIERHCRQATLIADGLRHAGFEVLNRVVLNQVLLRGETDSQTTAIREALQASGKAWFGGTVWQGRPALRISVSSWRTQDDNVQALIALLTEIKAKTPR
MGSDKIHHHHHHMSEVSKWPAINPFHWGYNGTVSHIVGENGSIKLHLKDNKEQVDFDEFANKYVPTLKNGAQFKLSPYLFTGILQTLYLGAADFSKKFPVFYGREIVKFSDGGVCTADWLIDSWKKDYEFDQSTTSFDKKKFDKDEKATHPEGWPRLQPRTRYLKDNELEELREVDLPLVVILHGLAGGSHEPIIRSLAENLSRSGRFQVVVLNTRGCARSKITTRNLFTAYHTMDIREFLQREKQRHPDRKLYAVGCSFGATMLANYLGEEGDKSPLSAAATLCNPWDLLLSAIRMSQDWWSRTLFSKNIAQFLTRTVQVNMGELGVPNGSLPDHPPTVKNPSFYMFTPENLIKAKSFKSTREFDEVYTAPALGFPNAMEYYKAASSINRVDTIRVPTLVINSRDDPVVGPDQPYSIVEKNPRILYCRTDLGGHLAYLDKDNNSWATKAIAEFFTKFDELVV
MGSDKIHHHHHHMSEYIQLYRYLNSRLPGVERKRLVLLTGARQTGKTTLAKAKYADLRYVNLDAPENREAVRTIASAFWARDIGPAVLDEAQKEPVVFDKVKYAYDDGALSFSVLLGSSQILLLKKIRETLAGRISIYELWPLLMSEICNGSAAPPSSPPLVDCLFSDMTCDDFFGDKPGILLDMEDACRRRAEEHLLQWGGMPSLLPLNTEERRQWLKDYGYTYLERDMADLARLEDLMPFRKFQRLAALRSGCLLNYSELARDAAISVDTARRYLEYLRLSYQTVFLPPYHVNLTSAVVKTPKVYWLDVGLLRQLSGMQGPTTGEIYETMVVGELMKWMKTAGREGDVFFYRTRSGLEVDVLLETPSGVVGMEIKSRRVLAARDLTGLKEIALALGPRWRGGLVIYQGDELKRIGTPQLWAVPSRRLFTGIE
MGSDKIHHHHHHMSGFSPELIDYLEGKISFEEFERRREERKTREKKSLQEKGKLSAEENPDDSEVPSSSGINSTKSQDKDVSEGETSDGVRKSVHKVFASMLGENEDDEEEEEEEEEEEEEEETPEQPTAGDVFVLEMVLNRETKKMMKEKRPRSKLPRALRGLMGEANIRFARGEREEAILMCMEIIRQAPLAYEPFSTLAMIYEDQGDMEKSLQFELIAAHLNPSDTEEWVRLAEMSLEQDNIKQAIFCYTKALKYEPTNVRYLWERSSLYEQMGDHKMAMDGYRRILNLLSPSDGERFMQLARDMAKSYYEANDVTSAINIIDEAFSKHQGLVSMEDVNIAAELYISNKQYDKALEIITDFSGIVLEKKTSEEGTSEENKAPENVTCTIPDGVPIDITVKLMVCLVHLNILEPLNPLLTTLVEQNPEDMGDLYLDVAEAFLDVGEYNSALPLLSALVCSERYNLAVVWLRHAECLKALGYMERAAESYGKVVDLAPLHLDARISLSTLQQQLGQPEKALEALEPMYDPDTLAQDANAAQQELKLLLHRSTLLFSQGKMYGYVDTLLTMLAMLLKVAMNRAQVCLISSSKSGERHLYLIKVSRDKISDSNDQESANCDAKAIFAVLTSVLTKDDWWNLLLKAIYSLCDLSRFQEAELLVDSSLEYYSFYDDRQKRKELEYFGLSAAILDKNFRKAYNYIRIMVMENVNKPQLWNIFNQVTMHSQDVRHHRFCLRLMLKNPENHALCVLNGHNAFVSGSFKHALGQYVQAFRTHPDEPLYSFCIGLTFIHMASQKYVLRRHALIVQGFSFLNRYLSLRGPCQESFYNLGRGLHQLGLIHLAIHYYQKALELPPLVVEGIELDQLDLRRDIAYNLSLIYQSSGNTGMAQTLLYTYCSI
MGSDKIHHHHHHMSGGDAMAKAVKQPAPDAEQIVLAIDIGGSHVKILTSAGGAERRDDSGPDLTPQQMIDKVKKLAEGLSYDVISMGYPGPVRHNKPVLDPKNLGKGWAGFDFAAQFGKPVKVVNDALMQAIGSYEGGRMLFLGLGTGLGAAMVFDNVGQPMELAHLPYRKGRSFEDYVGERGLEKRGKKKWRKYVFDVVTRLRAALQPDYVVIGGGNVDKLDALPAEARRGDNTRAFEGGFRLWRDKALIV
MGSDKIHHHHHHMSGKGAEYWTKRISEQEMPALSSTVKTLEKLAKDDVSSLAILGRSVMHDNALTSRILKVANSAIYNKGISHVTTVSRAAVVLGFDTIRNICITAKLLSSLLENKGLSEPVYHRLLTLMARAFQAAMLAKMMLKDHDEELQEEVFIAALLYHLGESAFWSMGGETTEQLDARLNQVDEKDANNVVREVLGTSFTQLSMGIAKNWGLGEVLVKSLSNPNERTPEIRSIYLANKISELMASDSKDIAELNHRIKQAADMLDLEVDEFKGRMIQCSHATRKLADTYGAKVLVAFLPDTHQLTLAAEPEAEPIKVREFNVDLQLKKLRELTDCAINKANFNEVITITLSGLLDGIGMDRCAVMLLSPNRKRLQPRVVLGENGDKMKNEFIVELNHDKNVFAESVDLKKPLFIDNPSSEKWRLYTDEELRRHTSVMGFMLAPILVDNKVIGLLYADRHSSERKLAEVDFERFTHFAQLTNLCLSVSVH
MGSDKIHHHHHHMSHLQTSNLPFKQRVDQQVHNEIMRKAVVNAQETIGQNRQKMVDELGHWEEWRDLSKQFRNHVLANLDAYLYQLSEKVKQNGGHVFFAETAEEATAYIRKVALAQKAKTIVKSKSMVTEEIGMNHVLEAEGINVVETDLGEYLLQIVGDKPSHIVVPAIHKDRHRIRKELHEKLGYTGSEQPEEMNAFVRKTLRKDFLNADIGISGCNFAVAETGSVCLVTNEGNLRLATTLPKTHIAVMGMERLAPTFKEVDALITMLCRSAVGAKLTAYNTWLTGPRLEGETDGPEDFHLVIVDNGRSKILASEFAEVLRCIRCGACLNTCPAYRQIGGHGYGSIYPGPIGAVISPLLGGYDEFKDLPYACSLCTACNSVCPVKIPLAQLILKHREKLVEEGRTPKGEQLAIKGFSFANSHPSLWGAGVKIGAKIAAKFIKNGKAPLQPGALGEWTKARDLPNPEGQSFREWFANRK
MGSDKIHHHHHHMSILTVSNLSHGFGDRAIFEDVSFRLLKGEHIGLVGANGEGKSTFMNIITSQLEPDEGKVEWAKHVRVGYLDQHAVLSKGLTIRDALKGAFQYLFDIEQEINDLYTKMGEVEPDELEKMLEEVGVLQDILTNNDFYTIDAKVEEIARGLGLDEIGLDRDVQELSGGQRTKILLAKLLLEKPDILLLDEPTNYLDVQHIEWLKRYLNDYENAFILISHDIPFLNSVINLIYHMENQGLNRYVGDYDNFLTVHEAKKKQHESAFKRQQQEISELKDFVARNKARVSTRNMAMSRQKKLDKMDVIELAQERPKPEFHFQTARTPSKLMFEAKGLVIGYDEPLSRPLDLMIERGQKIALHGANGIGKSTLLKSLLGEIPSVSGTVERGENLHIGYFEQEIKEKNSNTCIEEIWGTFPSLTQQQVRAMLAKCGLMTKHIESKIEVLSGGEKAKVRLCKLMNTESNILVLDEPTNHLDVEAKEELKRALQEYKGTVLLISHEPEFYEAVATDLWNCESWTTKVF
MGSDKIHHHHHHMSIMNFSEYQTQALKTDQIPAVEGTELMIPLLGLVGEVGSLMTEYKKHLRDGDAHKLFKEGIAEELGDMLWYISNLASKFNLNLEEIAEDNLRKCRDRWGWRDSAQIEDKGTTYIFDNDFPENESLPRQFEVEITEISKDNSIKMKAFINKKQVGNDLTDNSYTSDGYRFHDVFHFSYAAVLGWSAVTRSMLKRKRKSNSSIDEVEDGGRAIAIEEGISALIFSYAKNHGFLERVSTLDYQILKTIKNMTCHLEVSQCSLGDWEKAILMGYDVWRQVEKNRGGRVVLDLDARLITYLKKSSLCSASVEIKH
MGSDKIHHHHHHMSKANFPTDPALTAIAIAYRNRRMIADEVLPRTPVAKQEFTYLHYNLGEGFTVPNARVGRTSRPNQVEFGATQLTSSTEDFALDAPVPLVDIANKPTNYNPKGRATEQTTNLIELGREVRTANLVFNKKSYANGLTKTLSGNNQWSHDDSKPIADLLSALDTPVMRPNIMVLGQKAATALRTNKSIIKAYNGSLGDEGLVPLEYLKELFELEDIYVGQALINTVNQAKKAVLQQAWGNHCALIYRDRLADTNGGTTFGLTAQFGSREVRDIFDENMGMRGGYNVRVGESVKELITAPDLGFFLENVIA
MGSDKIHHHHHHMSKIVEVSKSPYAKLKTIPVGSVRVNGFMGKYFETLVNVTLPTQYDLLENTGRLDNFRIAAGKMEGSYKTLFPFDDTDVYKWAETVSFALANRKLPELEKILDSVIEEVKAAQDEDGYLGTYLSGDRKKERWTNLAWNHELYNAGHLIQAAVAHRRVTGKNTLFEVAKRFADHIYNTFGPEKKEGAPGHPEVEMALVELYRETGDRKYLDLARYFIYARGKGLASVPRNPGPEYFIDHKPFVELEEITGHAVRALYLCSGATDLYLETGDEKIWQALNRLWENFVTKKMYITGGAGSRHDWESFGEEYELPNRRSYAESCASIANFMWNFRMLLATGDGKFADVMEQVLYNGLLSGISLDGKHYFYFNPLEDYGRTRRQKWFDCACCPPNLARFIVSFPGYMYTTSDDGVQVHLYEKSTARLDFKGSVVEIEQETDYPWSGEVAFTIKTDIEEPFSIYLRLPSWADDFVLRVDGKAVIAKPQNGYVKLSQSWKGKHTVELSLPMKAVFIEAHPFVRDDLGKAAVKRGPVVYCIEQADNPDFHVWTLVLNSESLKEEKGKILDREAVFLKGTGRALDISEWEGKLYRKLSEVREKTVEFTLIPYHMWANREPGAMAVWLKR
